± gives the uncertainty stated by the source.

Our source for the amyloid nucleation score values is the supplement of paper PMC12042874.

A short description of this data set: amyloid nucleation score (Sup35N fusion, yeast selection) (log enrichment); library NNK2; higher = more nucleation; inactive = no reads after selection. The essentials: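 On medium lacking adenine and uracil, psi-negative yeast expressing peptides of 20 random codons fused to Sup35N were grown 7 days at 30°C after a 24-hour induction with 100 μM copper sulfate. Illumina sequencing of input and output plasmid inserts gave the reads, and sequences under 100 input reads were excluded. The nucleation score is the DiMSum log enrichment of output over input reads, centred on the mode score of non-aggregating sequences.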
Turning to HVTWKNMIIDYLVP, the amyloid nucleation score amounted to 0.615 ± 0.6.

For MTRVTYMYVFIYACESRYTH, the amyloid nucleation score is -0.116 ± 0.22.

Consider DGNWL, for which the amyloid nucleation score was -0.385 ± 0.76.

For the substance MWVPFASWLCK, the amyloid nucleation score is -0.08 ± 0.5.

Regarding PFGGVEAFAGRMWWVEHSYW, the amyloid nucleation score amounted to 0.009 ± 0.55.

As for NDMVRAISRKGIVSIHRRTR, the amyloid nucleation score amounted to 0.724 ± 0.45.

Substance GVYNITTLLPRCVVNVVL yielded an amyloid nucleation score of 7.482 ± 0.028.

As to LAYRKVLCMYSVSHSYTRAC, the amyloid nucleation score result was “inactive”.

With ETTNTQVNAIVRNFGQ, the amyloid nucleation score stood at 0.002 ± 0.55.

For QENFCEYFFDRSITSWWR, the amyloid nucleation score entry is “inactive”.

Consider RLFCSAVAH, for which the amyloid nucleation score turned out to be 0.308 ± 0.44.

Regarding VKALNH, the amyloid nucleation score stood at 0.66 ± 0.33.

DGRADFYSCVCLYYSWNGY: the amyloid nucleation score is 3.62 ± 0.037.

On to EMSGY, for which the amyloid nucleation score entry was “inactive”.

CLGRLMVYSAYYVHLYGVTI showed an amyloid nucleation score of -1.29 ± 0.62.

Substance GRNPVFWWQVLVATSRLNGQ displayed an amyloid nucleation score of 1.05 ± 0.32.

For MINLQYLVGNLAVGL, the amyloid nucleation score amounted to 1.37 ± 0.14.

FSGFVCWQADIFDDANIRLV yielded an amyloid nucleation score of -0.707 ± 0.78.

Take MVLLLQASSI: the amyloid nucleation score is -0.354 ± 0.54.

FFCMA registered an amyloid nucleation score of 5.48 ± 0.056.

Take NIFMWSSTEIHCRWKVFLRL: the amyloid nucleation score was -0.949 ± 0.44.

Substance SALCNDVVRPMMVFSENCAK displayed an amyloid nucleation score of 0.225 ± 0.31.

Consider RDCIRAVSCVIENTGPSAYE, for which the amyloid nucleation score was determined as 0.049 ± 0.56.

As to GLLKTQ, the amyloid nucleation score is -0.087 ± 0.31.

For KWSFF, the amyloid nucleation score came to 4.34 ± 0.081.

AGDAAN: the amyloid nucleation score entry is “inactive”.

In turn, KWPHRYINTLVPLLIRWTYR gave an amyloid nucleation score of -0.421 ± 0.37.

For KLNCMRGLPGLCPRWFIIAC, the amyloid nucleation score was found to be 0.089 ± 1.1.

GVKRYDVHM had an amyloid nucleation score of -0.244 ± 0.48.

As to CSIPCCVGHTLSLGRQFVFV, the amyloid nucleation score turned out to be 0.13 ± 0.43.

VREGSNRVSRFHNGWHQSGL gave an amyloid nucleation score of -0.555 ± 0.79.

On to LFNLKMSPSQRKNGLPVLTI, for which the amyloid nucleation score result is “inactive”.

Consider NTEKSIVVRDMIKDSYPFSV, for which the amyloid nucleation score entry is “inactive”.

In the case of IRGYYYGMRYSDWGSC, the amyloid nucleation score was -0.06 ± 0.31.

For VLKVRHVFEGGTEVILQSNR, the amyloid nucleation score was 2.22 ± 0.2.

Turning to DNYSRCGICWVSLRVLYVRR, the amyloid nucleation score result is “inactive”.

RLRMSMIISLINLRLCGLML came in with an amyloid nucleation score of 1.03 ± 0.53.

RMVRGLAFGDFWASSMRKYP: the amyloid nucleation score was found to be 0.241 ± 0.33.

Substance MPYTCMGVFVAHMEATE displayed an amyloid nucleation score of 0.316 ± 0.4.

In turn, SVLCEGTPEETTFLSDRLSG had an amyloid nucleation score of 1.09 ± 0.27.

MQRTIYFS displayed an amyloid nucleation score of 0.767 ± 0.58.

In the case of FPTFFCLAIIWKYMFLLIKF, the amyloid nucleation score is -0.238 ± 1.1.

With NVHDSLFWQFVIVNYTIGLS, the amyloid nucleation score came to 3.38 ± 0.042.

Turning to NSDCEVPFTWFVMLIGAPGG, the amyloid nucleation score was -0.393 ± 0.76.

In turn, KMQMLWTGVCRVLFVAPQPN showed an amyloid nucleation score of 0.319 ± 0.36.

As for CMKKWFS, the amyloid nucleation score came to 3.85 ± 0.075.

For the substance VATGLRAWWWTGKEEVGLVS, the amyloid nucleation score was determined as 1.69 ± 0.24.

Consider ALYRSGHLMLTVNGGCWWDF, for which the amyloid nucleation score amounted to 0.45 ± 0.8.

GYVWDVIGKWGTLRILRVSK came in with an amyloid nucleation score of -0.498 ± 1.1.

YSAVKCFPYRLPLNYAQIGA gave an amyloid nucleation score of 0.358 ± 0.53.

Take YNVTYLLRCFSILVSRVLKV: the amyloid nucleation score entry was “inactive”.

FINNNNGAPSRVHPTGALTR: the amyloid nucleation score was -0.357 ± 0.53.

SYEAGMHVNKGYLQVMCVDG: the amyloid nucleation score was -0.086 ± 0.23.

NTVFLLSFGCCEYYRFWGYL came in with an amyloid nucleation score of 8.34 ± 0.057.

In turn, YFSWTWVVFNAFNEVRFWTW came in with an amyloid nucleation score of -1.59 ± 0.61.

In the case of VPDGHWSTHRRFSYMQVLNW, the amyloid nucleation score is -0.441 ± 1.1.

As for VAPTLYLVCRIIRPNPNSYY, the amyloid nucleation score is -0.228 ± 0.53.

The substance AVRYSLFF had an amyloid nucleation score of 5.09 ± 0.054.

In turn, VERLYDAYQIF returned an amyloid nucleation score of 0.316 ± 0.4.

As to SGIALFKPSCSVGVAQFDYE, the amyloid nucleation score is -0.024 ± 0.45.

As for IVRVIMYLCGNLLVNRWGNA, the amyloid nucleation score worked out at 0.082 ± 1.1.

The substance RVFMEH returned an amyloid nucleation score of -0.047 ± 1.1.

As to SVKLHSGGSWLRTWDWPRVC, the amyloid nucleation score amounted to 1.55 ± 0.21.

DNIKTVSRMTWPWLMFTVGG: the amyloid nucleation score turned out to be 0.3 ± 0.55.

In the case of CARNTIAWVSNGMEFGSTGG, the amyloid nucleation score was -0.582 ± 0.76.

CSCFWCRRRKNYKFLGGCGS had an amyloid nucleation score of -1.25 ± 1.1.

For LILGYFRKELFKNASFVLNF, the amyloid nucleation score amounted to 4.05 ± 0.066.

YSGAYRLHYGFHIIICVCRW came in with an amyloid nucleation score of 3.21 ± 0.066.

For the substance RHRCSI, the amyloid nucleation score was -0.059 ± 0.39.

Consider TEIRLNVSLRSRRGPCPTRL, for which the amyloid nucleation score amounted to 6.06 ± 0.06.

As to DFVRY, the amyloid nucleation score was -0.484 ± 0.63.

Regarding MTGNVYKMIILIYNFFRRS, the amyloid nucleation score was determined as 2.7 ± 0.069.

As to TCVVMAKGKLVVPVQEYPCV, the amyloid nucleation score is 2.62 ± 0.11.

Consider IFASRSGFLSIRQLSHPARR, for which the amyloid nucleation score is 3.35 ± 0.078.

In turn, LAGNKYPWLS had an amyloid nucleation score of -1.1 ± 0.53.

Regarding SFVWRWRRSEFHQVMRGGWP, the amyloid nucleation score was 2.15 ± 0.23.

As for SFTCLLSFKQSCHSFMPCPC, the amyloid nucleation score came to 1.03 ± 0.32.

Substance CFCMINTCYSVINSFTYYGK had an amyloid nucleation score of 8.047 ± 0.066.

Turning to CEHDCSPTYDGLSYASFVRE, the amyloid nucleation score turned out to be 0.219 ± 0.5.

NFMGIIVLNQ came in with an amyloid nucleation score of 3.19 ± 0.09.

With WYSQVPERALRQWGFFSLGG, the amyloid nucleation score was 0.397 ± 0.46.

Turning to NLSVHAENLDNNRSGAEV, the amyloid nucleation score is -0.102 ± 0.76.

SRDAKRALFDLDHRTRWDHK displayed an amyloid nucleation score of 4.62 ± 0.079.

In the case of VRYFGDILFMSALYNLAGFA, the amyloid nucleation score entry was “inactive”.

For the substance SYACNRYKRMTAQIRNQGGM, the amyloid nucleation score stood at 0.225 ± 0.42.

Turning to RFIMSRYALEGAESTLMKHN, the amyloid nucleation score turned out to be 3.53 ± 0.1.

Consider QCGMIMRSSLKSGATCFLDS, for which the amyloid nucleation score came out at 0.124 ± 0.61.

The substance LPNRVNDRDAEYHVMLLCK showed an amyloid nucleation score of 0.095 ± 0.27.

YICSFYEADRSTRCFLIFFF: the amyloid nucleation score is -1.23 ± 0.44.

Substance GTFKDGMDSA returned an amyloid nucleation score of 3.75 ± 0.14.

Take GNVLTVIKAKDGS: the amyloid nucleation score is -0.606 ± 0.49.

Regarding LTATFTNMGCTTGSKCLM, the amyloid nucleation score result is “inactive”.

Substance LTLCSFRCTKLMR showed an amyloid nucleation score of 1.11 ± 0.25.

With HFETGGIS, the amyloid nucleation score worked out at 0.447 ± 0.57.

In turn, HWVCKIILRGHSSMYCSDGC registered an amyloid nucleation score of 3.35 ± 0.11.

As to CLPNTST, the amyloid nucleation score was found to be 0.075 ± 0.2.

As for RFGGSVYARGERL, the amyloid nucleation score was -0.159 ± 0.46.

In turn, CMREATFRLTSKFLSSFGL came in with an amyloid nucleation score of 4.04 ± 0.086.

In turn, YNPLLIV came in with an amyloid nucleation score of 0.082 ± 0.56.

Substance PAWSITLVPLLHTGCSDTKR had an amyloid nucleation score of 0.582 ± 0.31.

IYVFGIGTYMVTQFLCSTTI gave an amyloid nucleation score of 6.909 ± 0.031.

Substance QMYATSFNIDCVLFLSLFEM gave an amyloid nucleation score of 6.27 ± 0.07.

On to CHLFVFLGLPRQWVKSRPYA, for which the amyloid nucleation score is 0.18 ± 0.22.
